In publication PMC10519996:

What was measured:
Q2XVP4 [1] = experiment: cryo-EM structure; single-particle cryo-EM of porcine tubulin (5 mg/ml) incubated with 1.5 mM GMPCPP on ice for 20-30 min, peak fraction of gel filtration (Superdex 200 Increase 3.2/300), 1-2 μM on graphene grids, no cofactors or depolymerizing reagents; heterodimer map at 3.5 Å; tetramers by 2D …
Q2XVP4 [2] = experiment: cryo-EM structure; single-particle cryo-EM of porcine tubulin incubated with GDP on ice, peak fraction of gel filtration (Superdex 200 Increase 3.2/300), 1-2 μM on graphene grids, no cofactors or depolymerizing reagents; heterodimer maps at 3.6 Å and 3.9 Å; tetramers by 2D and 3D classification …

porcine αβ-tubulin heterodimer
percent of the particles per micrograph that are tubulin hexamers (three heterodimers) (Q2XVP4 [1]): 64%, 29%, and 7%
percent of the particles per micrograph that are tubulin tetramers (two heterodimers) (Q2XVP4 [1]): 64%, 29%, and 7%
percent of the particles per micrograph that are tubulin hexamers (three heterodimers) (Q2XVP4 [2]): 62%, 32%, and 6%
percent of the particles per micrograph that are tubulin tetramers (two heterodimers) (Q2XVP4 [2]): 62%, 32%, and 6%
